According to patent US20240343803A1 (SHANDONG SIMCERE BIOPHARMACEUTICAL, published 2024):

How the values were obtained:
[1] = biological target: T1, cynomolgus monkey PVRIG (Novoprotein, Cat NO. C09B) (cynomolgus monkey, UniProt A0A2K5WVV8 41-171); assay: ELISA, coated cynomolgus monkey PVRIG
T1 construct: Bought reagent; also called cynomolgus monkey PVRIG protein
T1 sequence: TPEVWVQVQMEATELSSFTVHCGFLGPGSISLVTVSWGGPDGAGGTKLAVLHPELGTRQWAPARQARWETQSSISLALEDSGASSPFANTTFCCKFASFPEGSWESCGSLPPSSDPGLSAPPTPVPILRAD

[2] = biological target: T2, human PVRIG on FlpinCHO-PVRIG cells (human, UniProt Q6DKI7 41-326); assay: FACS, FlpinCHO-PVRIG cells; AUC of MFI curve relative to SRF813-hIgG1
T2 construct: whole, on cells
T2 sequence (looked up): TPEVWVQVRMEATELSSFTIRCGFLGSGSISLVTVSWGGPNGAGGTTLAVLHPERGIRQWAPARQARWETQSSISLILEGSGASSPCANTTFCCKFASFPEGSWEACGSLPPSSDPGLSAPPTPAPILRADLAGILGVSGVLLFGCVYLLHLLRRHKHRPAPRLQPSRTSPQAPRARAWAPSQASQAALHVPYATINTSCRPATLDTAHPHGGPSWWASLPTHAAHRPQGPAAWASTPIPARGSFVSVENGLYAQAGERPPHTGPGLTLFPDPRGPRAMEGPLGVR
Procedure: (§1) The Ham's F12 (Gibico, 21127-022) complete medium containing 10% FBS was then added to terminate the digestion and acquire cell suspension. After counting with a cell counter (Beckman Coulter, Vi-CELL), an appropriate amount of cell suspension was centrifuged at 350×g to remove the supernatant, washed twice with PBS, stained with Zombie violet (Biolegend, 423114) and incubated at room temperature for 20 minutes. After incubation, the cells were added with staining buffer (2% FBS+PBS) to stop staining, centrifuged at 350×g to remove the supernatant, washed twice and resuspended with staining buffer to a density of 2×10⁶ cells/mL. The cells were plated into a 96-well plate (50 μL of cell suspension per well) for further use. The antibodies were diluted from the highest concentration of 46 nM (two-fold concentration) with staining buffer by 3.3-fold serial dilution. The diluted antibodies were added to the well containing 50 μL of cell suspension. The plate was placed on a microplate shaker at 400 rpm for 1 minute to fully mix the antibodies and cells, and then incubated at 4° C. for 30 minutes. After the incubation, the cells were washed twice with staining buffer (200 μL per well) and centrifuged at 350×g for 5 minutes to discard the supernatant. The PE goat anti-human IgG Fc antibody (ebioscience, 12-4998-82) was diluted 250 times with staining buffer, added into the washed wells (100 μL per well), mixed well, and stained at 4° C. for 30 minutes. After staining, the cells were washed twice with staining buffer, finally resuspended with 200 μL staining buffer and analyzed by flow cytometry (BD, Canto II). The stronger the signal, the stronger the ability of the antibodies binds to PVRIG. An antibody binding curve was drawn with concentration of antibodies as the abscissa and the corresponding Mean Fluorescence Intensity (MFI) as the ordinate. The AUC value of the curve was calculated by using a Four Parameter Logistic Fit (GraphPadPrism9). The stronger the AUC value, the stronger the ability of the antibodies binds to FlpinCHO-PVRIG and FlpinCHO-cyno PVRIG. […] The binding activity of the antibodies was normalized to the positive control COM701-hIgG1 and SRF813-hIgG1.

[3] = biological target: T2, human PVRIG on FlpinCHO-PVRIG cells; assay: FACS, FlpinCHO-PVRIG cells; AUC of MFI curve relative to COM701-hIgG1
Procedure: as §1

[4] = biological target: T3, human PVRIG-his (AcroBiosystems, Cat NO. PVG-H52H4) (human, UniProt Q6DKI7 41-171, limits assumed); assay: ELISA, coated human PVRIG-his; binding ELISA, Table 23
T3 construct: Bought reagent; also called human PVRIG protein
T3 sequence (looked up): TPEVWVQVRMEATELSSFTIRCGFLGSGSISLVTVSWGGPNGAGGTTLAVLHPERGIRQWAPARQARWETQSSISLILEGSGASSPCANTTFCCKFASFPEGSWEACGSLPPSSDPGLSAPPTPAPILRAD
Procedure: The ELISA plate was pre-coated with 100 μL/well of 0.5 μg/mL human PVRIG-his (AcroBiosystems, Cat NO. PVG-H52H4) or cynomolgus monkey PVRIG (Novoprotein, Cat NO. C09B). […] A HRP substrate, TMB (Thermo, Cat NO. 34029) was added into wells after washing the plate again for color development. After adding a termination solution to terminate the reaction, the absorbance value was read by a microplate reader (MD i3×). An antibody binding curve was drawn with concentration of antibodies as the abscissa and the corresponding OD value as the ordinate. The EC50 value was calculated by using a Four Parameter Logistic Fit (GraphPadPrism9). The smaller the EC50 value, the stronger the ability of the antibodies binds to human or cynomolgus monkey PVRIG. The positive control antibodies are COM701-hIgG1 (Patent No.:US20180244774A1), COM701-hIgG4 (patent No.: US20180244774A1) and SRF813-hIgG1 (Patent No.:US20200040081A1); and the negative control antibodies are anti-HA HcAb-hIgG1 (Chengdu NB Biolab, Cat NO. NBR022), anti-CD38 HcAb-hIgG1 (in-house) and anti-Fluorescein-hIgG1 (in house).

[5] = biological target: T4, cynomolgus monkey PVRIG on FlpinCHO-cyno PVRIG cells (cynomolgus monkey, UniProt A0A2K5WVV8 41-322); assay: FACS, FlpinCHO-cyno PVRIG cells; AUC of MFI curve relative to SRF813-hIgG1
T4 construct: whole, on cells
T4 sequence: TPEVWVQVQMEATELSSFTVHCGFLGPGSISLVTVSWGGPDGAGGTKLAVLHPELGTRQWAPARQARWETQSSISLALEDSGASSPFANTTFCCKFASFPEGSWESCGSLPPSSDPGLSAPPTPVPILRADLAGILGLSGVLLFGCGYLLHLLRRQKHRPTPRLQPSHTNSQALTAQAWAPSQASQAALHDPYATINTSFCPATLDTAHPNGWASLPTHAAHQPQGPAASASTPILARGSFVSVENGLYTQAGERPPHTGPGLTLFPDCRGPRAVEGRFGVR
Procedure: as §1

[6] = biological target: T4, cynomolgus monkey PVRIG on …; assay: FACS, FlpinCHO-cyno PVRIG cells; AUC of MFI curve relative to COM701-hIgG1
Procedure: as §1

- EC50 [1]: 0.0289 nM
- % AUC to SRF813-hIgG1 [2]: 143%
- % AUC to COM701-hIgG1 [3]: 117%
- EC50 [4]: 0.121 nM
- % AUC to SRF813-hIgG1 [5]: 48.6%
- % AUC to COM701-hIgG1 [6]: 41.3%
B1: PVRIG-A11 (Fc fusion)
chain: QLQLVESGGGLVQPGGSLRLSCAASGFTDDYYAIGWFRQAPGKEREGVSCISGSGGSTNYEDSVKGRFAISRDNAKNMVYLQMNDLKPEDTAVYYCAADPFWSAPCTGHNDRYFDVWGQGTLVTVSS
notes: Alpaca VHH joined to human IgG1 Fc (VHH-hinge-CH2-CH3); not shown: human IgG1 hinge-CH2-CH3
